{"source": "patent US20160002317A1", "target": "mAG (monomeric Azami-Green) with C-terminal E. coli BirA biotinylation motif and 6xHis tag", "assay": "capture of lambda phage on MACS streptavidin beads prebound with biotinylated mAG1; background control", "data": [{"substance": "phage uninduced (control) for α-mAG1 Fab::calmodulin expression", "values": [{"measurement": "column output (phage (of 5.5×107 added))", "result": 20000}]}]}
